T1: nSR100 (Mus musculus, UniProt Q8BKA3)
T1 construct: host or cells: mouse N2A cells
T1 sequence (Q8BKA3 1-608): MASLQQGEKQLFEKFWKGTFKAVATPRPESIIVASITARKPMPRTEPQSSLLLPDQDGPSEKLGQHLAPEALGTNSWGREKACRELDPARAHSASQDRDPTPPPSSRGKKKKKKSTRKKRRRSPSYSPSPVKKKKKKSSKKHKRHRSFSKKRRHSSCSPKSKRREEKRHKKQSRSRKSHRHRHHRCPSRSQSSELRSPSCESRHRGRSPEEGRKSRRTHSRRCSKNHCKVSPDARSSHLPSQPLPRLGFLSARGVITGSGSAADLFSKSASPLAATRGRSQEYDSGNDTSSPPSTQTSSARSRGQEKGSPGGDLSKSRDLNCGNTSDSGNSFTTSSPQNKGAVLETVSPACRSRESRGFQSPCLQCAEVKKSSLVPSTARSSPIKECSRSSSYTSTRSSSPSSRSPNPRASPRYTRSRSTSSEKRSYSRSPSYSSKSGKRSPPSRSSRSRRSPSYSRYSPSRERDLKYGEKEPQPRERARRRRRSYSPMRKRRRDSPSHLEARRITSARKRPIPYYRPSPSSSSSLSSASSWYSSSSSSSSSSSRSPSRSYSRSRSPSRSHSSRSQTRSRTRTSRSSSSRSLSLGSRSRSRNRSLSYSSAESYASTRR


Molecular target: T1, nSR100
Assay: AP-MS nSR100 interaction partners from mouse N2A cells (Table 5)
Type: binding
Conditions: for AvgP (average of the SAINT scores) / MaxP (maximal SAINT score): bait Srrm4; for FoldChange between the prey Avg spectra of the bait and control purifications: bait Srrm4, 0.1 added to prevent division by 0; for AvgSpec (average number of spectra per replicate): bait Srrm4, 2 replicates; for Spectra (number of spectra for the prey in the purification of the bait): AP-MS; for SpecSum: bait Srrm4, sum of spectra over 2 replicates
[1] = bait Srrm4, biological replicate 1 (first number of the cell)
[2] = bait Srrm4, biological replicate 2 (second number of the cell)

Description: By applying affinity purification coupled to mass-spectrometry (AP-MS), several interaction nSR100 partner proteins were detected that provide insight into mechanisms of post-translational regulation of nSR100 levels.

Molecule	AvgP (average of the SAINT scores)	MaxP (maximal SAINT score)	FoldChange between the prey Avg spectra of the bait and control purifications	AvgSpec (average number of spectra per replicate)	Spectra (number of spectra for the prey in the purification of the bait) [1]	Spectra (number of spectra for the prey in the purification of the bait) [2]	SpecSum
Luc7l (protein, UniProt Q9CYI4 1-371, looked up) Putative RNA-binding protein …: MSAQAQMRALLDQLMGTARDGDETRQRVKFTDDRVCKSHLLDCCPHDILAGTRMDLGECTKIHDLALRADYEIASKERDLFFELDAMDHLESFIAECDRRTELAKKRLAETQEEISAEVSAKAEKVHELNEEIGKLLAKAEQLGAEGNVDESQKILMEVEKVRAKKKEAEEEYRNSMPASSFQQQKLRVCEVCSAYLGLHDNDRRLADHFGGKLHLGFIQIREKLDQLRKTVAEKQEKRNQDRLRRREEREREERLGRRSGSRTRDRRRSRSRDRRRRRSRSTSRERRKFSRSRSRDRYRRHRSRSRSHSRGHRRASRDRSTKYKFSRERSLREESWEYGRNERGPTDWRLENSNGKTASRRSEEKEAGEI	0.95	0.99	3.17	19	18	20	38
Ddx6 (protein, UniProt P54823 1-483, looked up) Probable ATP-dependent RNA …: MSTARTENPVIMGLSSQNGQLRGPVKASAGPGGGGTQPQPQLNQLKNTSTINNGTPQQAQSMAATIKPGDDWKKTLKLPPKDLRIKTSDVTSTKGNEFEDYCLKRELLMGIFEMGWEKPSPIQEESIPIALSGRDILARAKNGTGKSGAYLIPLLERLDLKKDNIQAMVIVPTRELALQVSQICIQVSKHMGGAKVMATTGGTNLRDDIMRLDDTVHVVIATPGRILDLIKKGVAKVDHVQMIVLDEADKLLSQDFVQIMEDIILTLPKNRQILLYSATFPLSVQKFMNSHLQKPYEINLMEELTLKGVTQYYAYVTERQKVHCLNTLFSRLQINQSIIFCNSSQRVELLAKKISQLGYSCFYIHAKMRQEHRNRVFHDFRNGLCRNLVCTDLFTRGIDIQAVNVVINFDFPKLAETYLHRIGRSGRFGHLGLAINLITYDDRFNLKSIEEQLGTEIKPIPSNIDKSLYVAEYHSEPAEDEKP	0.97	1	30	3	2	4	6
Bcas2 (protein, UniProt Q9D287 2-225, looked up) Pre-mRNA-splicing factor SPF27: AGTGLVAGEVVVDALPYFDQGYEAPGVREAAAALVEEETRRYRPTKNYLSYLTAPDYSAFETDIMRNEFERLAARQPIELLSMKRYELPAPSSGQKNDITAWQECVNNSMAQLEHQAVRIENLELMSQHGCNAWKVYNENLVHMIEHAQKELQKLRKHIQDLNWQRKNMQLTAGSKLREMESNWVSLVSKNYEIERTIVQLENEIYQIKQQHGEANKENIRQDF	0.97	0.99	25	2.5	2	3	5

Other lines, results leading:

AvgP (average of the SAINT scores)	MaxP (maximal SAINT score)	FoldChange between the prey Avg spectra of the bait and control purifications	AvgSpec (average number of spectra per replicate)	Spectra (number of spectra for the prey in the purification of the bait) [1]	Spectra (number of spectra for the prey in the purification of the bait) [2]	SpecSum	Molecule
0.96	0.98	9	4.5	4	5	9	Rbmx2 (protein, UniProt Q8R0F5 1-326, looked up) RNA-binding motif protein, …: MNPLTKVKLINELNEREVQLGVAEKVSWHSEYKHSAWIFVGGLPYELTEGDIICVFSQYGEIVNINLVRDKKTGKSKGFCFLCYEDQRSTVLAVDNFNGIKIKGRTIRVDHVSNYRAPQESEDVDDVTRELQEKGCGVKTPPSSPPEVSEDEDAKLTKKHKKDKKEKKKRKKEKTEGQAQAEQPSCSRSATVKEKKDERASRKHSSKTSERAQKSEHRESKKSHSGSPDGRSSYHARAEDPECKARKEKPKHEHKSASRREAEEKSRERERGRSSGTHSGRHRGHSDGRSHRSRSRSRSPDKSHRHKKYRHSRERDSYHGSDRRHH
0.97	0.99	25	2.5	2	3	5	Wbp11 (protein, UniProt Q923D5 1-641, looked up) WW domain-binding protein 11: MGRRSTSSTKSGKFMNPTDQARKEARKRELKKNKKQRMMVRAAVLKMKDPKQIIRDMEKLDEMEFNPVQQPQLNEKVLKDKRKKLRETFERILRLYEKENPDIYKELRKLEVEYEQKRAQLSQYFDAVKNAQHVEVESIPLPDMPHAPSNILIQDIPLPGAQPPSILKKTSAYGPPARAVSILPLLGHGVPRLPPGRKPPGPPPGPPPPQVLQMYGRKVGFALDLPPRRRDEDMLYSPELAQRGHDDDMSSTSEDDGYPEDMDQDKHDDSTEDSDTDRSDAESDGDEFGHREDSERDNTEEKKSGLSVRFADMPGKSRKKKKNMKELTPLQAMMLRMAGQEIPEEGREVEEFSEEEDADDSDDSEAEKQSQKQHKDDGHSDSTAAASSQQQAPPQSAPASQIQAPPMPGPPPLGPPPAPPLRPPGPPTGLPPGPPPGAPPFLRPPGMPGIRGPLPRLLPPGPPPGRPPGPPPGPPPGLPPGPPPRGPPPRLPPPAPPGIPPPRPGMMRPPLVPPLGPAPPGLFPPAPLPNPGVLSAPPSLIQRPKADDASAATIEKKATATISAKPQITNPKAEVTRFVPTALRVRRENKGATAVPQRRSEDDSAVPVAKAAPRSGPSVAVSVQTKDDVYEAFMKEMEGLL
0.97	1	30	3	2	4	6	Sf3a2 (protein, UniProt Q62203 1-475, looked up) Splicing factor 3A subunit 2: MDFQHRPGGKTGSGGVASSSESNRDRRERLRQLALETIDINKDPYFMKNHLGSYECKLCLTLHNNEGSYLAHTQGKKHQTNLARRAAKEAKEAPAQPAPEQVKVEVKKFVKIGRPGYKVTKQRDTEMGQQSLLFQIDYPEIAEGIMPRHRFMSAYEQRIEPPDRRWQYLLMAAEPYETIAFKVPSREIDKAEGKFFFLQFHFKMEKPPAPPSLPAGPPGVKRPPPPLMNGLPPRPPLPDALPPPPPGGLPLPPMPPTGPAPSGPPGPPQMPPPAPGVHPPAPVVHPPTSGVHPPAPGVHPPAPVVHPPTSGVHPPAPGVHPPTPGVHPPAPGVHPPAPGVHPPAPGVHPPTPGVHPPAPGVHPPAPGVHPPAPGVHPPPSAGVHPQAPGVHPPAPAVHPQAPGVHPPAPGIHPQAPGVHPQPPPGVHPAAPGVHPQPPGVHPSNPGVHPAPMPPMLRPPLPSDGPGNMPPPPPGN
0.96	0.96	3.08	20	20|20	20|20	40	Sf3b2 (protein, UniProt Q3UJB0 1-878, looked up) Splicing factor 3B subunit 2: MAAEHPEPPKGELQLPPPPPPGHYGAWAAQELQARLAEIGAPIQGSREELVERLQTYTRQTGIVLNRPVLRGEDGDKAAPPPMSAQLSGIPMPPPPMGLPPLQPPPPPPPPPPGLGLGFPMAHPPNLGPPPPLRVGEPVALSEEERLKLAQQQAALLMQQEERAKQAAVLMEQERQQEIAKMGTAVPRPPQDMGQLGVRTPLGPRVAAPVGPVVPTPTVLPMGAPVPRPRGPPPPPGDENREMDDPSVGPKIPQALEKILQLKESRQEEMNSQQEEEEMETDTRSSLGQSASETEEDTVSISKKEKNRKRRNRKKKKKPQRVRAASSESSGDREKDSGRSRGSDPPAADVEIEYVTEEPEIYEPNFIFFKRIFEAFKLTDDVKKEKEKEPEKLDKMESSAVPKKKGFEEEHKDSDDDSSDDEQEKKPEAPKLSKKKLRRMNRFTVAELKQLVARPDVVEMHDVTAQDPKLLVHLKATRNSVPVPRHWCFKRKYLQGKRGIEKPPFELPDFIKRTGIQEMREALQEKEEQKTMKSKMREKVRPKMGKIDIDYQKLHDAFFKWQTKPKLTIHGDLYYEGKEFETRLKEKKPGDLSDELRISLGMPVGPNAHKVPPPWLIAMQRYGPPPSYPNLKIPGLNSPIPESCSFGYHAGGWGKPPVDETGKPLYGDVFGTNAAEFQTKTEEEEIDRTPWGELEPSDEESSEEEEEEESDEDKPDETGFITPADSGLITPGGFSSVPAGMETPELIELRKKKIEEAMDGSETPQLFTVLPEKRTATVGGAMMGSTHIYDMSTVMSRKGPAPELQGVEVALAPEELELDPMAMTQKYEEHVREQQAQVEKEDFSDMVAEHAAKQKQKKRKAQPQDSRGGSKKYKEFKF
